{"source": "patent US20060106200A1", "target": "full length, processed caspase-9 (residues 1-416) (UniProt P55211)", "sequence (P55211 whole entry, form in doubt, the tested form may be a part)": "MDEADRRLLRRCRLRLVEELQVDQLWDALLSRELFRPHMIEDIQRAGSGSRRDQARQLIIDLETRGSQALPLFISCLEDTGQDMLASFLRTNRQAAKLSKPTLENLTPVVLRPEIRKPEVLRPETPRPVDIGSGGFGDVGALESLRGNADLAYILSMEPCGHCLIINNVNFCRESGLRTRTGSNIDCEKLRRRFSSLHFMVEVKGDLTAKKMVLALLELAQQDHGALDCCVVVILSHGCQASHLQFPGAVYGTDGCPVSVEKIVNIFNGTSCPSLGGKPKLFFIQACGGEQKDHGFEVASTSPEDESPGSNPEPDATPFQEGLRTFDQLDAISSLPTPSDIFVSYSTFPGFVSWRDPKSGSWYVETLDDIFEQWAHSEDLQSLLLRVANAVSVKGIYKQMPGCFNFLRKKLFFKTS", "test": "gel filtration chromatography of equi-molar Apaf-1 (1-591) and caspase-9", "data": [{"substance": "soluble Apaf-1 fragment (residues 1-591 of full length Apaf-1) (from UniProt O14727 1-591)", "values": [{"measurement": "apparent molecular mass of the complex peak on gel filtration", "value": 130, "unit": "kilodaltons"}]}]}
